Literature values in paper PMC5593754.

Biological target: Glu97 (UniProt position 97, WARMAEWLCTC)
Test: UV-vis
Details: unphotolyzed (dark) state, protonated Schiff base

**Q.** For “Anion channelrhodopsin 1 (GtACR1) S97E mutant (Guillardia theta; S97E)”, which pKa is on record?
**A.** ∼8
